Experimental data taken from publication PMC11731006, “Structural insight into Okazaki fragment maturation mediated by PCNA-bound FEN1 and RNaseH2”.

Molecular target: RNaseH2 complex (RNaseH2A/RNaseH2B/RNaseH2C), wild type;PCNA (Homo sapiens;Homo sapiens, UniProt O75792;Q5TBB1;Q8TDP1;P12004 1-299;1-312;1-164;1-261, |)
Experiment: EMSA; 100 nM PCNA; 2 mM MgCl2; 100 nM DNA; 0.4-1.0 uM RNaseH2; PCNA raises binding (p 0.025, 0.010, 0.003 at 0.6, 0.8, 1.0 uM; ns at 0.4 uM); EMSA: 25 mM Tris pH 7.5, 100 mM NaCl, 10% glycerol, 2 mM MgCl2, 30 min at RT; 5% native TBE-PAGE at 4 C. Cryo-EM structures (8YJH-8YJZ) carry endogenous DNA of
Settings: protein: recombinant;recombinant; tags: N-terminal 6xHis (each subunit as stated);N-terminal 6xHis; copies: 1;1;1;3; blunt

Sequence of RNaseH2 complex (RNaseH2A/RNaseH2B/RNaseH2C), wild type;PCNA (O75792 whole entry, chain 1 of 4): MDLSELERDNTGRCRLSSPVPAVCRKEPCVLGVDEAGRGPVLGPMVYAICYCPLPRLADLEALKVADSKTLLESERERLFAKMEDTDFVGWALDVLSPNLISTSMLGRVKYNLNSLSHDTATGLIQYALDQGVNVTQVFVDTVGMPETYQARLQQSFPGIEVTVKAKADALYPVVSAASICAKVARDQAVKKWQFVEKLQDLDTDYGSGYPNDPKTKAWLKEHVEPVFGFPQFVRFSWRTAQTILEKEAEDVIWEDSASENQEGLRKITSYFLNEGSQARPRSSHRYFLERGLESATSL
Sequence of RNaseH2 complex (RNaseH2A/RNaseH2B/RNaseH2C), wild type;PCNA (Q5TBB1 whole entry, chain 2 of 4): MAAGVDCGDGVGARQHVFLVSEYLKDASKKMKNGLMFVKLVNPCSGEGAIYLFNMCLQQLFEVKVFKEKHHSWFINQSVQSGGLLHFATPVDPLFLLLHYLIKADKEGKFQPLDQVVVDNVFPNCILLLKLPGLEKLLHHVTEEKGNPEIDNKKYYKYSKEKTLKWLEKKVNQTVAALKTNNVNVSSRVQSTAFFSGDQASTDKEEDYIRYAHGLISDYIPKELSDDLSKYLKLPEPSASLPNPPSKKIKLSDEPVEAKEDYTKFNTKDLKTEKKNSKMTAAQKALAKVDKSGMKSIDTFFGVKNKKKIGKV
Sequence of RNaseH2 complex (RNaseH2A/RNaseH2B/RNaseH2C), wild type;PCNA (Q8TDP1 whole entry, chain 3 of 4): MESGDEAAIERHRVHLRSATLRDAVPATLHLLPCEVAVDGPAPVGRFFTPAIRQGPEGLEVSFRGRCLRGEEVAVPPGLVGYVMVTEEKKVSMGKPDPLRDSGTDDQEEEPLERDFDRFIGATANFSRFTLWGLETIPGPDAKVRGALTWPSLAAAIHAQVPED
Sequence of RNaseH2 complex (RNaseH2A/RNaseH2B/RNaseH2C), wild type;PCNA (P12004 whole entry, chain 4 of 4): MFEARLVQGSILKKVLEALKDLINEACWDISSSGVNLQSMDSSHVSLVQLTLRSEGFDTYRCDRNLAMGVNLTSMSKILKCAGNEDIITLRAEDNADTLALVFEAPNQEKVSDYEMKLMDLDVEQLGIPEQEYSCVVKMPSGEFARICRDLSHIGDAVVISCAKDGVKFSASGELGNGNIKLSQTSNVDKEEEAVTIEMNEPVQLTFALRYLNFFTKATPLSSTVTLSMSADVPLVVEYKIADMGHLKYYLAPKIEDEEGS

B1: 5'-FAM 20 bp dsDNA (dsDNA)
DNA 1: CGGTTATAGGTTCACGGGGT
DNA 2: ACCCCGTGAACCTATAACCG
B1: binds.
